According to paper PMC10540216, “Activity Guided Azide-methyllysine Photo-trapping for Substrate Profiling of Lysine Demethylases” (Journal of the American Chemical Society, 2023):

B1: MCM4_HUMAN (protein, UniProt P33991 2-863, looked up)
DNA replication licensing …: SSPASTPSRRGSRRGRATPAQTPRSEDARSSPSQRRRGEDSTSTGELQPMPTSPGVDLQSPAAQDVLFSSPPQMHSSAIPLDFDVSSPLTYGTPSSRVEGTPRSGVRGTPVRQRPDLGSAQKGLQVDLQSDGAAAEDIVASEQSLGQKLVIWGTDVNVAACKENFQRFLQRFIDPLAKEEENVGIDITEPLYMQRLGEINVIGEPFLNVNCEHIKSFDKNLYRQLISYPQEVIPTFDMAVNEIFFDRYPDSILEHQIQVRPFNALKTKNMRNLNPEDIDQLITISGMVIRTSQLIPEMQEAFFQCQVCAHTTRVEMDRGRIAEPSVCGRCHTTHSMALIHNRSLFSDKQMIKLQESPEDMPAGQTPHTVILFAHNDLVDKVQPGDRVNVTGIYRAVPIRVNPRVSNVKSVYKTHIDVIHYRKTDAKRLHGLDEEAEQKLFSEKRVELLKELSRKPDIYERLASALAPSIYEHEDIKKGILLQLFGGTRKDFSHTGRGKFRAEINILLCGDPGTSKSQLLQYVYNLVPRGQYTSGKGSSAVGLTAYVMKDPETRQLVLQTGALVLSDNGICCIDEFDKMNESTRSVLHEVMEQQTLSIAKAGIICQLNARTSVLAAANPIESQWNPKKTTIENIQLPHTLLSRFDLIFLLLDPQDEAYDRRLAHHLVALYYQSEEQAEEELLDMAVLKDYIAYAHSTIMPRLSEEASQALIEAYVDMRKIGSSRGMVSAYPRQLESLIRLAEAHAKVRLSNKVEAIDVEEAKRLHREALKQSATDPRTGIVDISILTTGMSATSRKRKEELAEALKKLILSKGKTPALKYQQLFEDIRGQSDIAITKDMFEEALRALADDDFLTVTGKTVRLL
B2: SEPT9_HUMAN (protein, UniProt Q9UHD8 1-586, looked up)
Septin-9: MKKSYSGGTRTSSGRLRRLGDSSGPALKRSFEVEEVETPNSTPPRRVQTPLLRATVASSTQKFQDLGVKNSEPSARHVDSLSQRSPKASLRRVELSGPKAAEPVSRRTELSIDISSKQVENAGAIGPSRFGLKRAEVLGHKTPEPAPRRTEITIVKPQESAHRRMEPPASKVPEVPTAPATDAAPKRVEIQMPKPAEAPTAPSPAQTLENSEPAPVSQLQSRLEPKPQPPVAEATPRSQEATEAAPSCVGDMADTPRDAGLKQAPASRNEKAPVDFGYVGIDSILEQMRRKAMKQGFEFNIMVVGQSGLGKSTLINTLFKSKISRKSVQPTSEERIPKTIEIKSITHDIEEKGVRMKLTVIDTPGFGDHINNENCWQPIMKFINDQYEKYLQEEVNINRKKRIPDTRVHCCLYFIPATGHSLRPLDIEFMKRLSKVVNIVPVIAKADTLTLEERVHFKQRITADLLSNGIDVYPQKEFDEDSEDRLVNEKFREMIPFAVVGSDHEYQVNGKRILGRKTKWGTIEVENTTHCEFAYLRDLLIRTHMQNIKDITSSIHFEAYRVKRLNEGSSAMANGMEEKEPEAPEM
B3: SF01_HUMAN (protein, UniProt Q15637 2-639, looked up)
Splicing factor 1: ATGANATPLDFPSKKRKRSRWNQDTMEQKTVIPGMPTVIPPGLTREQERAYIVQLQIEDLTRKLRTGDLGIPPNPEDRSPSPEPIYNSEGKRLNTREFRTRKKLEEERHNLITEMVALNPDFKPPADYKPPATRVSDKVMIPQDEYPEINFVGLLIGPRGNTLKNIEKECNAKIMIRGKGSVKEGKVGRKDGQMLPGEDEPLHALVTANTMENVKKAVEQIRNILKQGIETPEDQNDLRKMQLRELARLNGTLREDDNRILRPWQSSETRSITNTTVCTKCGGAGHIASDCKFQRPGDPQSAQDKARMDKEYLSLMAELGEAPVPASVGSTSGPATTPLASAPRPAAPANNPPPPSLMSTTQSRPPWMNSGPSESRPYHGMHGGGPGGPGGGPHSFPHPLPSLTGGHGGHPMQHNPNGPPPPWMQPPPPPMNQGPHPPGHHGPPPMDQYLGSTPVGSGVYRLHQGKGMMPPPPMGMMPPPPPPPSGQPPPPPSGPLPPWQQQQQQPPPPPPPSSSMASSTPLPWQQNTTTTTTSAGTGSIPPWQQQQAAAAASPGAPQMQGNPTMVPLPPGVQPPLPPGAPPPPPPPPPGSAGMMYAPPPPPPPPMDPSNFVTMMGMGVAGMPPFGMPPAPPPPPPQN
B4: GCSP_HUMAN (protein, UniProt P23378 36-1020, looked up)
Glycine dehydrogenase …: DSSSGGGDSAAAGASRLLERLLPRHDDFARRHIGPGDKDQREMLQTLGLASIDELIEKTVPANIRLKRPLKMEDPVCENEILATLHAISSKNQIWRSYIGMGYYNCSVPQTILRNLLENSGWITQYTPYQPEVSQGRLESLLNYQTMVCDITGLDMANASLLDEGTAAAEALQLCYRHNKRRKFLVDPRCHPQTIAVVQTRAKYTGVLTELKLPCEMDFSGKDVSGVLFQYPDTEGKVEDFTELVERAHQSGSLACCATDLLALCILRPPGEFGVDIALGSSQRFGVPLGYGGPHAAFFAVRESLVRMMPGRMVGVTRDATGKEVYRLALQTREQHIRRDKATSNICTAQALLANMAAMFAIYHGSHGLEHIARRVHNATLILSEGLKRAGHQLQHDLFFDTLKIQCGCSVKEVLGRAAQRQINFRLFEDGTLGISLDETVNEKDLDDLLWIFGCESSAELVAESMGEECRGIPGSVFKRTSPFLTHQVFNSYHSETNIVRYMKKLENKDISLVHSMIPLGSCTMKLNSSSELAPITWKEFANIHPFVPLDQAQGYQQLFRELEKDLCELTGYDQVCFQPNSGAQGEYAGLATIRAYLNQKGEGHRTVCLIPKSAHGTNPASAHMAGMKIQPVEVDKYGNIDAVHLKAMVDKHKENLAAIMITYPSTNGVFEENISDVCDLIHQHGGQVYLDGANMNAQVGICRPGDFGSDVSHLNLHKTFCIPHGGGGPGMGPIGVKKHLAPFLPNHPVISLKRNEDACPVGTVSAAPWGSSSILPISWAYIKMMGGKGLKQATETAILNANYMAKRLETHYRILFRGARGYVGHEFILDTRPFKKSANIEAVDVAKRLQDYGFHAPTMSWPVAGTLMVEPTESEDKAELDRFCDAMISIRQEIADIEEGRIDPRVNPLKMSPHSLTCVTSSHWDRPYSREVAAFPLPFVKPENKFWPTIARIDDIYGDQHLVCTCPPMEVYESPFSEQKRASS
B5: DDX17_HUMAN (protein, UniProt Q92841 1-729, looked up)
Probable ATP-dependent RNA …: MPTGFVAPILCVLLPSPTREAATVASATGDSASERESAAPAAAPTAEAPPPSVVTRPEPQALPSPAIRAPLPDLYPFGTMRGGGFGDRDRDRDRGGFGARGGGGLPPKKFGNPGERLRKKKWDLSELPKFEKNFYVEHPEVARLTPYEVDELRRKKEITVRGGDVCPKPVFAFHHANFPQYVMDVLMDQHFTEPTPIQCQGFPLALSGRDMVGIAQTGSGKTLAYLLPAIVHINHQPYLERGDGPICLVLAPTRELAQQVQQVADDYGKCSRLKSTCIYGGAPKGPQIRDLERGVEICIATPGRLIDFLESGKTNLRRCTYLVLDEADRMLDMGFEPQIRKIVDQIRPDRQTLMWSATWPKEVRQLAEDFLRDYTQINVGNLELSANHNILQIVDVCMESEKDHKLIQLMEEIMAEKENKTIIFVETKRRCDDLTRRMRRDGWPAMCIHGDKSQPERDWVLNEFRSGKAPILIATDVASRGLDVEDVKFVINYDYPNSSEDYVHRIGRTARSTNKGTAYTFFTPGNLKQARELIKVLEEANQAINPKLMQLVDHRGGGGGGGGRSRYRTTSSANNPNLMYQDECDRRLRGVKDGGRRDSASYRDRSETDRAGYANGSGYGSPNSAFGAQAGQYTYGQGTYGAAAYGTSSYTAQEYGAGTYGASSTTSTGRSSQSSSQQFSGIGRSGQQPQPLMSQQFAQPPGATNMIGYMGQTAYQYPPPPPPPPPSRK
B6: U2AF2_HUMAN (protein, UniProt P26368 2-475, looked up)
Splicing factor U2AF 65 kDa …: SDFDEFERQLNENKQERDKENRHRKRSHSRSRSRDRKRRSRSRDRRNRDQRSASRDRRRRSKPLTRGAKEEHGGLIRSPRHEKKKKVRKYWDVPPPGFEHITPMQYKAMQAAGQIPATALLPTMTPDGLAVTPTPVPVVGSQMTRQARRLYVGNIPFGITEEAMMDFFNAQMRLGGLTQAPGNPVLAVQINQDKNFAFLEFRSVDETTQAMAFDGIIFQGQSLKIRRPHDYQPLPGMSENPSVYVPGVVSTVVPDSAHKLFIGGLPNYLNDDQVKELLTSFGPLKAFNLVKDSATGLSKGYAFCEYVDINVTDQAIAGLNGMQLGDKKLLVQRASVGAKNATLVSPPSTINQTPVTLQVPGLMSSQVQMGGHPTEVLCLMNMVLPEELLDDEEYEEIVEDVRDECSKYGLVKSIEIPRPVDGVEVPGCGKIFVEFTSVFDCQKAMQGLTGRKFANRVVVTKYCDPDSYHRRDFW
B7: SYDC_HUMAN (protein, UniProt P14868 1-501, looked up)
Aspartate--tRNA ligase, …: MPSASASRKSQEKPREIMDAAEDYAKERYGISSMIQSQEKPDRVLVRVRDLTIQKADEVVWVRARVHTSRAKGKQCFLVLRQQQFNVQALVAVGDHASKQMVKFAANINKESIVDVEGVVRKVNQKIGSCTQQDVELHVQKIYVISLAEPRLPLQLDDAVRPEAEGEEEGRATVNQDTRLDNRVIDLRTSTSQAVFRLQSGICHLFRETLINKGFVEIQTPKIISAASEGGANVFTVSYFKNNAYLAQSPQLYKQMCICADFEKVFSIGPVFRAEDSNTHRHLTEFVGLDIEMAFNYHYHEVMEEIADTMVQIFKGLQERFQTEIQTVNKQFPCEPFKFLEPTLRLEYCEALAMLREAGVEMGDEDDLSTPNEKLLGHLVKEKYDTDFYILDKYPLAVRPFYTMPDPRNPKQSNSYDMFMRGEEILSGAQRIHDPQLLTERALHHGIDLEKIKAYIDSFRFGAPPHAGGGIGLERVTMLFLGLHNVRQTSMFPRDPKRLTP
B8: NUCB1_HUMAN (protein, UniProt Q02818 27-461, looked up)
Nucleobindin-1: VPLERGAPNKEETPATESPDTGLYYHRYLQEVIDVLETDGHFREKLQAANAEDIKSGKLSRELDFVSHHVRTKLDELKRQEVSRLRMLLKAKMDAEQDPNVQVDHLNLLKQFEHLDPQNQHTFEARDLELLIQTATRDLAQYDAAHHEEFKRYEMLKEHERRRYLESLGEEQRKEAERKLEEQQRRHREHPKVNVPGSQAQLKEVWEELDGLDPNRFNPKTFFILHDINSDGVLDEQELEALFTKELEKVYDPKNEEDDMREMEEERLRMREHVMKNVDTNQDRLVTLEEFLASTQRKEFGDTGEGWETVEMHPAYTEEELRRFEEELAAREAELNAKAQRLSQETEALGRSQGRLEAQKRELQQAVLHMEQRKQQQQQQQGHKAPAAHPEGQLKFHPDTDDVPVPAPAGDQKEVDTSEKKLLERLPEVEVPQHL
B9: CACP_HUMAN (protein, UniProt P43155 1-626, looked up)
Carnitine O-acetyltransferase: MLAFAARTVVKPLGFLKPFSLMKASSRFKAHQDALPRLPVPPLQQSLDHYLKALQPIVSEEEWAHTKQLVDEFQASGGVGERLQKGLERRARKTENWLSEWWLKTAYLQYRQPVVIYSSPGVMLPKQDFVDLQGQLRFAAKLIEGVLDFKVMIDNETLPVEYLGGKPLCMNQYYQILSSCRVPGPKQDTVSNFSKTKKPPTHITVVHNYQFFELDVYHSDGTPLTADQIFVQLEKIWNSSLQTNKEPVGILTSNHRNSWAKAYNTLIKDKVNRDSVRSIQKSIFTVCLDATMPRVSEDVYRSHVAGQMLHGGGSRLNSGNRWFDKTLQFIVAEDGSCGLVYEHAAAEGPPIVTLLDYVIEYTKKPELVRSPLVPLPMPKKLRFNITPEIKSDIEKAKQNLSIMIQDLDITVMVFHHFGKDFPKSEKLSPDAFIQMALQLAYYRIYGQACATYESASLRMFHLGRTDTIRSASMDSLTFVKAMDDSSVTEHQKVELLRKAVQAHRGYTDRAIRGEAFDRHLLGLKLQAIEDLVSMPDIFMDTSYAIAMHFHLSTSQVPAKTDCVMFFGPVVPDGYGVCYNPMEAHINFSLSAYNSCAETNAARLAHYLEKALLDMRALLQSHPRAKL

Each molecule was assayed on KDM4A-I71AzF (assay: CASI: photo-crosslinking with HEK293T cell extracts, StrepTactin enrichment and LC-MS/MS proteomics). Settings: sheet "Final results but with 0.01".
Format: binding, human
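Note: lysates from HEK293T cells pretreated with a KDM4 inhibitor to raise proteome methylation, affinity-purified after ±UV, gel-resolved, trypsin-digested, with exclusive unique peptides per protein averaged per condition.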

Molecule | Fold change (+UV/-UV)
B1 | 0.5
B2 | 0.6667
B3 | 0.9
B4 | 6
B5 | 1
B6 | 2
B7 | 2
B8 | 3
B9 | 0
